Measurements as given in the supplement of paper PMC10065799, “High-throughput profiling of sequence recognition by tyrosine kinases and SH2 domains using bacterial peptide display” (eLife, 2023).

What follows are sequences tested on AncSZ (assay: phosphorylation enrichment, bacterial display (enrichment ratio); higher = better substrate or ligand; peptides without Tyr show the background).
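Further: 11-residue human phosphosite peptides and single-mutation variants displayed on the E. coli surface, counted by deep sequencing, each peptide's frequency after selection divided by its frequency in the unselected input library; frequency after pTyr selection over input frequency; kinase dosed for 20-30% of maximal phosphorylation in three min.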

Sequence | phosphorylation enrichment
GLALRCLSDHS [VWF_Y1584_Y1584C] | 0.86
PVPKTYDMLNA [PKP2_Y108_K112N] | 0.866
GLALRYLSDHS [VWF_Y1584] | 0.873
KTTSGYAGGLS [KRT8_Y419] | 0.404
IGNGYYFHVFS [MYBPC3_Y1136_R1138H] | 1.46
VIGRMYDYHVL [RPF2_Y109] | 0.966
ELCSEYRKSRK [SPINK5_Y440] | 0.562
GVTLLYFGRFN [ADGRD1_Y85_YF] | 1.54
EQLLDYTRTVQ [INPP5E_Y439_R435Q] | 0.969
SKKSTYQALLD [GANC_Y43] | 0.563
KIPGRYYETGS [PAX2_Y72_L69P] | 0.56
EASGIYVKSII [PATJ_Y396] | 1.02
GGRIDYIAGLV [APRT_Y60_D65V] | 1.19
KASVDYIRKLQ [MITF_Y360] | 0.765
RQLEIYRASRP [ERCC4_Y594] | 0.663
PVLSLYASGRT [ACTA1_Y145_A140P] | 1.14
KILGTYYETGS [PAX2_Y72_R71T] | 0.875

Sequence | phosphorylation enrichment
RPGSGYTKIMR [PKLR_Y564_N566K] | 0.546
FMMMRYSQNIR [SDAD1_Y656_V660I] | 1.17
NSFKYYMSDDI [ATRX_Y204_C200S] | 0.87
LTMAPYSSVSL [FAM81A_Y24] | 0.628
ADEDIYGVLPA [LYNtide_2014] | 1.49
SKNFTYIWWLN [PSG4_Y271_YF] | 1.18
DGTIVYTGLET [USH2A_Y4487] | 0.821
PTQLPYDHKWE [KIT_Y578] | 0.859
LQKNIYSEELR [LMNA_Y211_F206L] | 1.32
TALFIYIRPKA [OR10C1_Y258] | 1.23
GHEYIYVDPMQ [PDGFRA_Y574] | 5.16
GRVFVYHLSEQ [ITGAE_Y551_R552H_YF] | 0.986
RNLDTYQKRLR [PLA2G2D_Y126] | 0.617
KNKELYSDLFD [PDE10A_Y300] | 1.13
KKARAYGPGIE [FLNA_Y287] | 0.576
EEALYYLTRVE [SET_Y119_H118Y] | 2.55

These sequences were tested against EPHB1 (UniProt P54762) in the same assay as above.
Sequence of EPHB1 (P54762 whole entry, looked up): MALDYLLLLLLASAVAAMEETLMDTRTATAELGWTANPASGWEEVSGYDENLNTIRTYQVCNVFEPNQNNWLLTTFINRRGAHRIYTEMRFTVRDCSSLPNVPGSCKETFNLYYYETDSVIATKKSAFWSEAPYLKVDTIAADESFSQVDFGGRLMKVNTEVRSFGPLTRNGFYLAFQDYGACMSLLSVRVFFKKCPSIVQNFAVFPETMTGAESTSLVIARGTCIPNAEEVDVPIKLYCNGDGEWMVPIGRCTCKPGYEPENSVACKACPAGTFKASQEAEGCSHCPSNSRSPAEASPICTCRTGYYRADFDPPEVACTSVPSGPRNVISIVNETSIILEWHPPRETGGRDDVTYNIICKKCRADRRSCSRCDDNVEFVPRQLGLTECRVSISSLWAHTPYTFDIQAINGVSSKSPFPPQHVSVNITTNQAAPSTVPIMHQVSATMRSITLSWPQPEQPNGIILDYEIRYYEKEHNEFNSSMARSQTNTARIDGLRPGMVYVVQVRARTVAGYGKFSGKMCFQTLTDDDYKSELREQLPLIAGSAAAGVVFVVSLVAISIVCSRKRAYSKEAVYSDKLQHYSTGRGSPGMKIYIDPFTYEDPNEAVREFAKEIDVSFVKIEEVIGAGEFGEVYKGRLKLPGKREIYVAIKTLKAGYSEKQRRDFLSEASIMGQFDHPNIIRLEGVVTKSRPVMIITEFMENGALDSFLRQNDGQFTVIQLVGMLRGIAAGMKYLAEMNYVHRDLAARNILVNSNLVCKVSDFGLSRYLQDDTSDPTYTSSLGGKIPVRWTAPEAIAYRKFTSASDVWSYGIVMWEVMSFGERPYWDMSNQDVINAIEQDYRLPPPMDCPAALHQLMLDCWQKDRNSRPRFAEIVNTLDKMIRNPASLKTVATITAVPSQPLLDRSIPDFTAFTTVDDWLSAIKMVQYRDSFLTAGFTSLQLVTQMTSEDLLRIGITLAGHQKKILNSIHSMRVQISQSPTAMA

Sequence | phosphorylation enrichment
GLALRCLSDHS [VWF_Y1584_Y1584C] | 0.592
PVPKTYDMLNA [PKP2_Y108_K112N] | 0.512
GLALRYLSDHS [VWF_Y1584] | 0.518
KTTSGYAGGLS [KRT8_Y419] | 0.332
IGNGYYFHVFS [MYBPC3_Y1136_R1138H] | 0.848
VIGRMYDYHVL [RPF2_Y109] | 1.33
ELCSEYRKSRK [SPINK5_Y440] | 0.425
GVTLLYFGRFN [ADGRD1_Y85_YF] | 0.501
EQLLDYTRTVQ [INPP5E_Y439_R435Q] | 0.557
SKKSTYQALLD [GANC_Y43] | 0.394
KIPGRYYETGS [PAX2_Y72_L69P] | 0.445
EASGIYVKSII [PATJ_Y396] | 0.543
GGRIDYIAGLV [APRT_Y60_D65V] | 0.562
KASVDYIRKLQ [MITF_Y360] | 0.393
RQLEIYRASRP [ERCC4_Y594] | 0.388
PVLSLYASGRT [ACTA1_Y145_A140P] | 0.637
KILGTYYETGS [PAX2_Y72_R71T] | 0.66

Sequence | phosphorylation enrichment
RPGSGYTKIMR [PKLR_Y564_N566K] | 0.415
FMMMRYSQNIR [SDAD1_Y656_V660I] | 0.77
NSFKYYMSDDI [ATRX_Y204_C200S] | 0.503
LTMAPYSSVSL [FAM81A_Y24] | 0.412
ADEDIYGVLPA [LYNtide_2014] | 0.705
SKNFTYIWWLN [PSG4_Y271_YF] | 0.675
DGTIVYTGLET [USH2A_Y4487] | 0.525
PTQLPYDHKWE [KIT_Y578] | 0.716
LQKNIYSEELR [LMNA_Y211_F206L] | 1.82
TALFIYIRPKA [OR10C1_Y258] | 0.406
GHEYIYVDPMQ [PDGFRA_Y574] | 7.52
GRVFVYHLSEQ [ITGAE_Y551_R552H_YF] | 0.508
RNLDTYQKRLR [PLA2G2D_Y126] | 0.831
KNKELYSDLFD [PDE10A_Y300] | 1.03
KKARAYGPGIE [FLNA_Y287] | 0.328
EEALYYLTRVE [SET_Y119_H118Y] | 1.85

The sequences below were run against EPHB2 (UniProt P29323) in the same assay as above.
Sequence of EPHB2 (P29323 whole entry, looked up): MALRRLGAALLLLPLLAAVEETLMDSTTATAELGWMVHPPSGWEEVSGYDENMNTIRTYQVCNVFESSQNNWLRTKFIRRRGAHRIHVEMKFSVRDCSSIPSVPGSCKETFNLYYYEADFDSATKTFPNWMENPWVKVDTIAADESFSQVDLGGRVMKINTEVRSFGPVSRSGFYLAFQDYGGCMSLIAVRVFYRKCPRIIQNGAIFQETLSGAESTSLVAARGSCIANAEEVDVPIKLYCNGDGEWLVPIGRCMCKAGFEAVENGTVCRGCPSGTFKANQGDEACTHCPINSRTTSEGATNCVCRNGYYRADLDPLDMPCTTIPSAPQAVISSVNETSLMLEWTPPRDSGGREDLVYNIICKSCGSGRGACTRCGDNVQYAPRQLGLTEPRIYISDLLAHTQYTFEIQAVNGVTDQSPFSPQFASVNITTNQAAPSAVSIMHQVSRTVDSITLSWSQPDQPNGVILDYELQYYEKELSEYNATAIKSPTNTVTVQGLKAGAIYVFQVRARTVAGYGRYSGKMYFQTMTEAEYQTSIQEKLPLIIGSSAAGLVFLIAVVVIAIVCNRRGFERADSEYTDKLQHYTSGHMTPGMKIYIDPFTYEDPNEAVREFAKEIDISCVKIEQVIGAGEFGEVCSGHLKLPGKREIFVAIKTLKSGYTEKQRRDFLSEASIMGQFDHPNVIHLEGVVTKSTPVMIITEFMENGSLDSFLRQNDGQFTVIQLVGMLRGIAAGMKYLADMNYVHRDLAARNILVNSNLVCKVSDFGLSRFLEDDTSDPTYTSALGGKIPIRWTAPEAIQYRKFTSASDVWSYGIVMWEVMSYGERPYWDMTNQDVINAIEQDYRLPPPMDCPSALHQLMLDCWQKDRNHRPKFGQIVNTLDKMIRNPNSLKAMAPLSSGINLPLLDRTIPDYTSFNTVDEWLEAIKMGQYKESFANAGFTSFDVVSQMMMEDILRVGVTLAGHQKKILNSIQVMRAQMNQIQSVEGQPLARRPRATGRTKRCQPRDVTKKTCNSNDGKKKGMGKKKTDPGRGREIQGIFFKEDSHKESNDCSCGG

Sequence | phosphorylation enrichment
GLALRCLSDHS [VWF_Y1584_Y1584C] | 0.559
PVPKTYDMLNA [PKP2_Y108_K112N] | 0.622
GLALRYLSDHS [VWF_Y1584] | 0.471
KTTSGYAGGLS [KRT8_Y419] | 0.304
IGNGYYFHVFS [MYBPC3_Y1136_R1138H] | 0.552
VIGRMYDYHVL [RPF2_Y109] | 1.7
ELCSEYRKSRK [SPINK5_Y440] | 0.489
GVTLLYFGRFN [ADGRD1_Y85_YF] | 0.676
EQLLDYTRTVQ [INPP5E_Y439_R435Q] | 0.569
SKKSTYQALLD [GANC_Y43] | 0.369
KIPGRYYETGS [PAX2_Y72_L69P] | 0.424
EASGIYVKSII [PATJ_Y396] | 0.535
GGRIDYIAGLV [APRT_Y60_D65V] | 0.604
KASVDYIRKLQ [MITF_Y360] | 0.409
RQLEIYRASRP [ERCC4_Y594] | 0.254
PVLSLYASGRT [ACTA1_Y145_A140P] | 0.548
KILGTYYETGS [PAX2_Y72_R71T] | 0.641

Sequence | phosphorylation enrichment
RPGSGYTKIMR [PKLR_Y564_N566K] | 0.303
FMMMRYSQNIR [SDAD1_Y656_V660I] | 1.23
NSFKYYMSDDI [ATRX_Y204_C200S] | 0.542
LTMAPYSSVSL [FAM81A_Y24] | 0.45
ADEDIYGVLPA [LYNtide_2014] | 1.36
SKNFTYIWWLN [PSG4_Y271_YF] | 0.611
DGTIVYTGLET [USH2A_Y4487] | 0.528
PTQLPYDHKWE [KIT_Y578] | 0.631
LQKNIYSEELR [LMNA_Y211_F206L] | 1.02
TALFIYIRPKA [OR10C1_Y258] | 0.697
GHEYIYVDPMQ [PDGFRA_Y574] | 10.2
GRVFVYHLSEQ [ITGAE_Y551_R552H_YF] | 0.608
RNLDTYQKRLR [PLA2G2D_Y126] | 0.279
KNKELYSDLFD [PDE10A_Y300] | 0.794
KKARAYGPGIE [FLNA_Y287] | 0.335
EEALYYLTRVE [SET_Y119_H118Y] | 1.91

Each sequence was assayed against FGFR1 (UniProt P11362) in the same assay as above.
Sequence of FGFR1 (P11362 whole entry, looked up): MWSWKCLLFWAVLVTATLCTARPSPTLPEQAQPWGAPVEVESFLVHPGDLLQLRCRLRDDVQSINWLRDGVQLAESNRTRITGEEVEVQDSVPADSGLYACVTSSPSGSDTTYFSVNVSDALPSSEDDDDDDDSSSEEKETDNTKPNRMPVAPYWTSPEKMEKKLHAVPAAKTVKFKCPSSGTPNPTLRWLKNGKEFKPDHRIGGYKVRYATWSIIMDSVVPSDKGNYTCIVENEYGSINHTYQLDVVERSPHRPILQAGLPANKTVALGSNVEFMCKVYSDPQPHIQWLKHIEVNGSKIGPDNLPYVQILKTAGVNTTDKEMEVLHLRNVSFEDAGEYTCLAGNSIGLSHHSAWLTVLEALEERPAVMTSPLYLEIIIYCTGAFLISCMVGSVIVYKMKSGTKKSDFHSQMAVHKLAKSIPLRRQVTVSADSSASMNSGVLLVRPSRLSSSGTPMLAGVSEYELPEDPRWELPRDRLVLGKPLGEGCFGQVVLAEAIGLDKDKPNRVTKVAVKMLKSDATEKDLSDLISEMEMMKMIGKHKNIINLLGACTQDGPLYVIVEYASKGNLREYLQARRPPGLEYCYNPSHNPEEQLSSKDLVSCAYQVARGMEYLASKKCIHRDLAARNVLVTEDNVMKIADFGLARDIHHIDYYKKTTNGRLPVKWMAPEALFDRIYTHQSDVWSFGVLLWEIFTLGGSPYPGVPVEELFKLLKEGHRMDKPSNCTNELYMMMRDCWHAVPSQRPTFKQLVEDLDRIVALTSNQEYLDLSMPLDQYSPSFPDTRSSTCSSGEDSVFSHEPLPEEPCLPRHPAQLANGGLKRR

Sequence | phosphorylation enrichment
GLALRCLSDHS [VWF_Y1584_Y1584C] | 0.551
PVPKTYDMLNA [PKP2_Y108_K112N] | 0.597
GLALRYLSDHS [VWF_Y1584] | 0.565
KTTSGYAGGLS [KRT8_Y419] | 0.398
IGNGYYFHVFS [MYBPC3_Y1136_R1138H] | 1.61
VIGRMYDYHVL [RPF2_Y109] | 6.62
ELCSEYRKSRK [SPINK5_Y440] | 0.429
GVTLLYFGRFN [ADGRD1_Y85_YF] | 0.448
EQLLDYTRTVQ [INPP5E_Y439_R435Q] | 0.515
SKKSTYQALLD [GANC_Y43] | 0.416
KIPGRYYETGS [PAX2_Y72_L69P] | 0.503
EASGIYVKSII [PATJ_Y396] | 0.523
GGRIDYIAGLV [APRT_Y60_D65V] | 0.496
KASVDYIRKLQ [MITF_Y360] | 0.364
RQLEIYRASRP [ERCC4_Y594] | 0.312
PVLSLYASGRT [ACTA1_Y145_A140P] | 0.328
KILGTYYETGS [PAX2_Y72_R71T] | 1.85

Sequence | phosphorylation enrichment
RPGSGYTKIMR [PKLR_Y564_N566K] | 0.372
FMMMRYSQNIR [SDAD1_Y656_V660I] | 0.663
NSFKYYMSDDI [ATRX_Y204_C200S] | 0.567
LTMAPYSSVSL [FAM81A_Y24] | 0.498
ADEDIYGVLPA [LYNtide_2014] | 0.606
SKNFTYIWWLN [PSG4_Y271_YF] | 0.498
DGTIVYTGLET [USH2A_Y4487] | 0.755
PTQLPYDHKWE [KIT_Y578] | 0.581
LQKNIYSEELR [LMNA_Y211_F206L] | 1.79
TALFIYIRPKA [OR10C1_Y258] | 0.556
GHEYIYVDPMQ [PDGFRA_Y574] | 14.4
GRVFVYHLSEQ [ITGAE_Y551_R552H_YF] | 0.593
RNLDTYQKRLR [PLA2G2D_Y126] | 0.373
KNKELYSDLFD [PDE10A_Y300] | 0.556
KKARAYGPGIE [FLNA_Y287] | 0.323
EEALYYLTRVE [SET_Y119_H118Y] | 9.54
